Measurements as given in the supplement of paper PMC10567573.

B1: PRAME (parent)
chain: KKLKIFAMPMQDIKMILKMVQLDS
B2: C1orf137 (parent)
chain: LPQETNLTLKVCKPQAPQKLDPTL

Variants of: B1
Experiment: protein stability index of a GFP-peptide fusion (GPS, HEK-293T) (PSI 1-6); higher = more stable
Settings: c terminus: a fixed tail appended
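Also: lentivirally expressed fusions sorted by FACS into six bins by GFP to DsRed ratio, PSI derived from sequencing read proportions per bin multiplied by bin number.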

Protein stability index, by site and new letter:
S24: R 3.56 | N 2.87 | A 3.45 | H 2.91 | K 2.42 | F 2.85 | I 2.49 | Q 2.02 | P 1.9 | V 2.5 | E 4.07 | M 3.73 | G 2.47 | D 4.26 | T 2.39
I16: D 1.73 | V 2.48 | Y 3.04 | G 2.32 | E 1.47 | T 3.06 | P 1.63 | K 1.69 | F 3.41 | Q 1.6 | L 1.71 | R 1.75 | C 2.5 | S 3.21 | N 1.23 | W 2.79 | H 2.66
M19: S 2.44 | P 1.69 | H 2.59 | Q 2.89 | G 2.15 | D 2.13 | I 2.81 | F 2.46 | C 3.53 | T 3.38 | W 2.46 | N 2.21
L22: P 3.45 | V 3.63 | I 3.88 | A 1.13 | C 1.88 | Y 2.57 | M 1.42 | K 1.95 | Q 2.51 | R 2.83 | H 3.28 | D 4.71
K18: D 2.22 | F 3.27 | S 2.19 | V 4.3 | P 1.56 | T 2.42 | E 3.69 | R 3.54 | L 3.04 | M 2.67 | A 3.37 | N 1.99 | Y 2.62 | Q 2.18 | G 3.49 | H 2.65 | W 3.98
D23: F 3.54 | M 1.94 | S 3.79 | W 2.58 | P 3.05 | K 2.4 | L 3.12 | N 2.18 | I 2.33 | E 3.61 | T 2.86
I13: P 1.32 | Q 1.93 | K 1.44 | R 2.96 | M 2.88 | E 1.65 | W 1.03 | F 2.23 | H 1.84 | A 2.39 | D 2.66 | N 1.54 | S 2.45 | V 3.55 | Y 4.03 | T 1.64
M15: R 2.25 | F 2.51 | C 2.02 | A 2.66 | G 2.96 | N 1.59 | T 2.15 | H 3.17 | I 2.09 | K 3.85 | Q 1 | D 2.22 | P 1.81 | V 2.85 | E 2.36
L17: T 1.12 | K 2.11 | G 1.71 | Y 3.8 | P 2.27 | Q 1.62 | C 2.73 | M 2.59 | N 1.5 | R 1.75 | W 2.06 | E 2.04 | D 1.88 | S 2.1 | A 2.66 | I 2.19 | V 2.64 | H 2.39
V20: A 3.51 | D 2.19 | K 4.07 | T 3.9 | S 2.01 | E 2.33 | Q 2.9 | R 2.37 | H 3.51 | Y 2.21 | C 2.55 | F 2.98 | P 2.22 | N 2.32 | I 4.22
Q21: T 3.42 | E 2.03 | K 3.17 | M 2.33 | P 3.91 | G 3.64 | W 1.98 | I 2.69 | N 2.82 | A 3.36 | C 3.19
K14: N 3.16 | D 3.25 | Y 2.42 | E 2.98 | Q 2.64 | G 2.88 | T 1.64 | P 3.66 | I 3.61 | S 1.59 | C 2.52 | H 3.17 | V 2.44 | R 1.65
D12: P 3.3 | W 3.37 | Y 3.17 | T 3.29 | R 2.17 | Q 4.16

Variants of: B2
Experiment: as above
Settings: c terminus: a fixed tail appended

Protein stability index, by site and new letter:
E4: K 3.46 | S 3.12 | L 2.6 | Y 2.98 | H 3.08 | P 4.22 | R 2.64 | V 3.03 | T 3.59 | G 3.36 | A 3.77 | F 2.44 | Q 3.74 | D 3.7 | M 2.82 | N 3.94 | C 2.37 | W 2.32 | I 2.51
L1: D 4.73 | N 3.77 | Q 4.38 | A 4.06 | K 3.93 | V 4.34 | W 3.98 | P 4.65 | C 4 | H 3.36 | M 4.04 | T 4.44 | E 4.8 | S 4.46 | Y 3.04 | F 2.79 | R 3.48 | I 3.97
N6: H 4.23 | A 3.88 | I 2.42 | C 3.3 | W 3.2 | R 3.31 | T 3.71 | Q 3.94 | V 3.29 | D 4.38 | G 4.6 | L 3.57 | M 3.22 | E 4.15 | S 3.56 | K 3.27 | Y 2.99 | F 3.36
P2: E 4.18 | K 3.06 | N 3.46 | R 2.88 | I 3.49 | D 4.3 | V 3.13 | A 3.84 | C 3.27 | W 2.16 | F 2.85 | Q 3.76 | G 3.79 | Y 3.14 | L 2.65 | M 2.23 | S 2.8 | T 3.92 | H 3.5
T8: D 3.21 | I 2.37 | Q 4.21 | W 2.64 | A 4.3 | V 2.92 | C 4.15 | R 3.57 | F 2.9 | M 3.69 | S 4.3 | Y 2.98 | E 4.14 | P 4.53 | N 4.11 | K 3.57 | L 3.95 | G 4.55 | H 3.88
T5: L 2.69 | S 3.9 | V 3.04 | R 3.6 | N 3.69 | F 2.77 | Y 2.88 | A 4.02 | E 4.2 | H 4 | I 2.6 | K 3.64 | M 3.58 | D 4.38 | C 2.99 | P 4.59 | Q 4.33 | G 3.75
L7: D 4.94 | T 4.33 | K 4.61 | P 4.42 | C 3.53 | R 4.67 | H 4.51 | E 4.79 | I 3.4 | F 2.92 | V 4.21 | N 4.66 | M 4.25 | G 4.48 | A 4.25 | Y 3.89 | Q 4.56 | S 4.35
L9: C 3.91 | E 4.76 | G 4.32 | H 3.78 | D 4.92 | A 4.14 | F 4.05
Q3: D 4.33 | H 3.6 | Y 3.34 | L 3.58 | S 3.8 | C 4.12 | T 4.17 | K 3.96 | E 4.59 | V 3.73 | A 4.3 | I 3.1 | G 3.63 | N 3.53 | W 2.54 | R 3.29 | P 3.79 | F 3.08 | M 3.6
